# From paper PMC10348767 (2023)
# B1: FLAG-hnRNPH2 WT, full length [human] / Kapβ2 in HEK293T cells [human (endogenous in HEK293T)] (parent complex)
# chain 1: MMLSTEGREGFVVKVRGLPWSCSADEVMRFFSDCKIQNGTSGIRFIYTREGRPSGEAFVELESEEEVKLALKKDRETMGHRYVEVFKSNSVEMDWVLKHTGPNSPDTANDGFVRLRGLPFGCSKEEIVQFFSGLEIVPNGMTLPVDFQGRSTGEAFVQFASQEIAEKALKKHKERIGHRYIEIFKSSRAEVRTHYDPPRKLMAMQRPGPYDRPGAGRGYNSIGRGAGFERMRRGAYGGGYGGYDDYGGYNDGYGFGSDRFGRDLNYCFSGMSDHRYGDGGSSFQSTTGHCVHMRGLPYRATENDIYNFFSPLNPMRVHIEIGPDGRVTGEADVEFATHEDAVAAMAKDKANMQHRYVELFLNSTAGTSGGAYDHSYVELFLNSTAGASGGAYGSQMMGGMGLSNQSSYGGPASQQLSGGYGGGYGGQSSMSGYDQVLQENSSDYQSNLA
# chain 2: MVWDRQTKMEYEWKPDEQGLQQILQLLKESQSPDTTIQRTVQQKLEQLNQYPDFNNYLIFVLTKLKSEDEPTRSLSGLILKNNVKAHFQNFPNGVTDFIKSECLNNIGDSSPLIRATVGILITTIASKGELQNWPDLLPKLCSLLDSEDYNTCEGAFGALQKICEDSAEILDSDVLDRPLNIMIPKFLQFFKHSSPKIRSHAVACVNQFIISRTQALMLHIDSFIENLFALAGDEEPEVRKNVCRALVMLLEVRMDRLLPHMHNIVEYMLQRTQDQDENVALEACEFWLTLAEQPICKDVLVRHLPKLIPVLVNGMKYSDIDIILLKGDVEEDETIPDSEQDIRPRFHRSRTVAQQHDEDGIEEEDDDDDEIDDDDTISDWNLRKCSAAALDVLANVYRDELLPHILPLLKELLFHHEWVVKESGILVLGAIAEGCMQGMIPYLPELIPHLIQCLSDKKALVRSITCWTLSRYAHWVVSQPPDTYLKPLMTELLKRILDSNKRVQEAACSAFATLEEEACTELVPYLAYILDTLVFAFSKYQHKNLLILYDAIGTLADSVGHHLNKPEYIQMLMPPLIQKWNMLKDEDKDLFPLLECLSSVATALQSGFLPYCEPVYQRCVNLVQKTLAQAMLNNAQPDQYEAPDKDFMIVALDLLSGLAEGLGGNIEQLVARSNILTLMYQCMQDKMPEVRQSSFALLGDLTKACFQHVKPCIADFMPILGTNLNPEFISVCNNATWAIGEISIQMGIEMQPYIPMVLHQLVEIINRPNTPKTLLENTAITIGRLGYVCPQEVAPMLQQFIRPWCTSLRNIRDNEEKDSAFRGICTMISVNPSGVIQDFIFFCDAVASWINPKDDLRDMFCKILHGFKNQVGDENWRRFSDQFPLPLKERLAAFYGV
# B2: GST-hnRNPH2 PY-NLS WT (aa 169–225) [human] / karyopherin β2 (Kapβ2) [not stated] (parent complex)
# chain 1: LKKHKERIGHRYIEIFKSSRAEVRTHYDPPRKLMAMQRPGPYDRPGAGRGYNSIGRG
# chain 2: B1 chain 2
# Variants of: B1
# Test: co-immunoprecipitation (anti-FLAG IP, immunoblot densitometry); HEK293T cells transfected with FLAG-hnRNPH2 constructs; parent: 100; read off a plot
row,Variant,percent of parent [%]
1,chain 1 MMLSTEGREGFVVKVRGLPWSCSADEVMRFFSDCKIQNGTSGIRFIYTREGRPSGEAFVELESEEEVKLALKKDRETMGHRYVEVFKSNSVEMDWVLKHTGPNSPDTANDGFVRLRGLPFGCSKEEIVQFFSGLEIVPNGMTLPVDFQGRSTGEAFVQFASQEIAEKALKKHKERIGHRYIEIFKSSRAEVRTHYDPPRKLMAMQRPGLYDRPGAGRGYNSIGRGAGFERMRRGAYGGGYGGYDDYGGYNDGYGFGSDRFGRDLNYCFSGMSDHRYGDGGSSFQSTTGHCVHMRGLPYRATENDIYNFFSPLNPMRVHIEIGPDGRVTGEADVEFATHEDAVAAMAKDKANMQHRYVELFLNSTAGTSGGAYDHSYVELFLNSTAGASGGAYGSQMMGGMGLSNQSSYGGPASQQLSGGYGGGYGGQSSMSGYDQVLQENSSDYQSNLA [chain 1 P209L],~20
2,chain 1 MMLSTEGREGFVVKVRGLPWSCSADEVMRFFSDCKIQNGTSGIRFIYTREGRPSGEAFVELESEEEVKLALKKDRETMGHRYVEVFKSNSVEMDWVLKHTGPNSPDTANDGFVRLRGLPFGCSKEEIVQFFSGLEIVPNGMTLPVDFQGRSTGEAFVQFASQEIAEKALKKHKERIGHRYIEIFKSSRAEVRTHYDPPRKLMAMQGPGPYDRPGAGRGYNSIGRGAGFERMRRGAYGGGYGGYDDYGGYNDGYGFGSDRFGRDLNYCFSGMSDHRYGDGGSSFQSTTGHCVHMRGLPYRATENDIYNFFSPLNPMRVHIEIGPDGRVTGEADVEFATHEDAVAAMAKDKANMQHRYVELFLNSTAGTSGGAYDHSYVELFLNSTAGASGGAYGSQMMGGMGLSNQSSYGGPASQQLSGGYGGGYGGQSSMSGYDQVLQENSSDYQSNLA [chain 1 R206G],~26

# Second part, the variant after the results:
row,percent of parent [%],Variant
1,~48,chain 1 MMLSTEGREGFVVKVRGLPWSCSADEVMRFFSDCKIQNGTSGIRFIYTREGRPSGEAFVELESEEEVKLALKKDRETMGHRYVEVFKSNSVEMDWVLKHTGPNSPDTANDGFVRLRGLPFGCSKEEIVQFFSGLEIVPNGMTLPVDFQGRSTGEAFVQFASQEIAEKALKKHKERIGHRYIEIFKSSRAEVRTHYDPPRKLMAMQWPGPYDRPGAGRGYNSIGRGAGFERMRRGAYGGGYGGYDDYGGYNDGYGFGSDRFGRDLNYCFSGMSDHRYGDGGSSFQSTTGHCVHMRGLPYRATENDIYNFFSPLNPMRVHIEIGPDGRVTGEADVEFATHEDAVAAMAKDKANMQHRYVELFLNSTAGTSGGAYDHSYVELFLNSTAGASGGAYGSQMMGGMGLSNQSSYGGPASQQLSGGYGGGYGGQSSMSGYDQVLQENSSDYQSNLA [chain 1 R206W]
2,~25,chain 1 MMLSTEGREGFVVKVRGLPWSCSADEVMRFFSDCKIQNGTSGIRFIYTREGRPSGEAFVELESEEEVKLALKKDRETMGHRYVEVFKSNSVEMDWVLKHTGPNSPDTANDGFVRLRGLPFGCSKEEIVQFFSGLEIVPNGMTLPVDFQGRSTGEAFVQFASQEIAEKALKKHKERIGHRYIEIFKSSRAEVRTHYDPPRKLMAMQQPGPYDRPGAGRGYNSIGRGAGFERMRRGAYGGGYGGYDDYGGYNDGYGFGSDRFGRDLNYCFSGMSDHRYGDGGSSFQSTTGHCVHMRGLPYRATENDIYNFFSPLNPMRVHIEIGPDGRVTGEADVEFATHEDAVAAMAKDKANMQHRYVELFLNSTAGTSGGAYDHSYVELFLNSTAGASGGAYGSQMMGGMGLSNQSSYGGPASQQLSGGYGGGYGGQSSMSGYDQVLQENSSDYQSNLA [chain 1 R206Q]
3,~25,chain 1 MMLSTEGREGFVVKVRGLPWSCSADEVMRFFSDCKIQNGTSGIRFIYTREGRPSGEAFVELESEEEVKLALKKDRETMGHRYVEVFKSNSVEMDWVLKHTGPNSPDTANDGFVRLRGLPFGCSKEEIVQFFSGLEIVPNGMTLPVDFQGRSTGEAFVQFASQEIAEKALKKHKERIGHRYIEIFKSSRAEVRTHYDPPRKLMAMQRPGPCDRPGAGRGYNSIGRGAGFERMRRGAYGGGYGGYDDYGGYNDGYGFGSDRFGRDLNYCFSGMSDHRYGDGGSSFQSTTGHCVHMRGLPYRATENDIYNFFSPLNPMRVHIEIGPDGRVTGEADVEFATHEDAVAAMAKDKANMQHRYVELFLNSTAGTSGGAYDHSYVELFLNSTAGASGGAYGSQMMGGMGLSNQSSYGGPASQQLSGGYGGGYGGQSSMSGYDQVLQENSSDYQSNLA [chain 1 Y210C]

# Variants of: B2
# Test: GST pulldown, Coomassie Blue band intensity; parent: 86; read off a plot
row,response [%],Variant
1,~42,chain 1 LKKHKERIGHRYIEIFKSSRAEVRTHYDPPRKLMAMQWPGPYDRPGAGRGYNSIGRG [chain 1 R38W]
2,~28,chain 1 LKKHKERIGHRYIEIFKSSRAEVRTHYDPPRKLMAMQRPGLYDRPGAGRGYNSIGRG [chain 1 P41L]
